Laboratory results from doi:10.1101/2023.09.20.558697.
Like-named read-outs stand apart in the source and are kept apart here.

What was measured:
Test in all cases: EMSA
[1] = biological target: T1, RokL6-His6 (Streptomyces coelicolor A3(2) M145, UniProt Q9L112 1-399)
T1 sequence: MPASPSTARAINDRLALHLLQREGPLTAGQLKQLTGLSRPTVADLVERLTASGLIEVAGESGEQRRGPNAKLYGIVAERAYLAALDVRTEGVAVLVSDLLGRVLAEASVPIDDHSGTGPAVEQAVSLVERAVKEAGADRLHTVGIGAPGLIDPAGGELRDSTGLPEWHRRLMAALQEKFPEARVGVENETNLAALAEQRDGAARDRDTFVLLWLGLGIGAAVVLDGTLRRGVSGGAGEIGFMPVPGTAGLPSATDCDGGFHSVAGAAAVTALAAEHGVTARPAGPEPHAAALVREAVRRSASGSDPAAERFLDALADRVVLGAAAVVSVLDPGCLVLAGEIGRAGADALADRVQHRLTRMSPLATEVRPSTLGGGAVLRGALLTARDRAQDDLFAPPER

[2] = biological target: T1, RokL6-His6; remark: listed apart in the source
[3] = biological target: T1, RokL6-His6; remark: listed apart in the source

B1: hrdB-P (dsDNA)
DNA 1: CGGCCCGCCCGCACCGTCGGCCCATTCCCAAGCCGGTGGTCGGCCCCTGTCCGCCGTGGA
DNA 2: TCCACGGCGGACAGGGGCCGACCACCGGCTTGGGAATGGGCCGACGGTGCGGGCGGGCCG
- binding result [1]: no binding

B2: RokL6-BS (dsDNA)
DNA 1: CGCACCGGTAATCCACTATCTATCAGGCAGGCTCCCTGATAGTTTACGCCGCGGATTGAC
DNA 2: GTCAATCCGCGGCGTAAACTATCAGGGAGCCTGCCTGATAGATAGTGGATTACCGGTGCG
- binding result [2]: binds

B3: RokL6-M3 (dsDNA)
DNA 1: CGCACCGGTAATCCACTATCGAATTCGCAGGCTCCGGATCCGTTTACGCCGCGGATTGAC
DNA 2: GTCAATCCGCGGCGTAAACGGATCCGGAGCCTGCGAATTCGATAGTGGATTACCGGTGCG
- binding result [3]: no binding
